Target: recombinant hemolysin co-regulated protein 1 variant B (rHcp1^(variant B)) of Burkholderia pseudomallei (Burkholderia pseudomallei (clinical isolate DR0089))
Test: […]) at 10 mg/ml in PBS pH 7.2; […]

## recombinant hemolysin co-regulated protein 1 variant B (rHcp1^(variant B)) of Burkholderia pseudomallei (natural protein)
  stoichiometry N: 6
